From article PMC6185872 (Cell Host & Microbe, 2018)

What was measured:
B41 SOSIP.664 v4.2 = target: T1, B41 SOSIP.664 v4.2 (HIV-1 (clade B B41)); assay: cryo-EM structure; settings: both partners purified
T1 construct: copies: 3 + 3

[1] = target: T2, sCD4 D1D2 (domains 1 and 2; residues 1-186 of mature CD4); assay: cryo-EM structure; settings: both partners purified
T2 construct: also called soluble CD4; source: HEK293-6E, transient transfection, purified (Ni-NTA, SEC)

B1: 21c Fab (Fab, V domains shown)
VH: QVQVVQSGAEVRKPGASVKVSCKVSGFTLTGLSIHWVRQAPGKGLEWMGGFGPEENEIIYAQKFQGRVSMTEDTSTNTAYMELSSLRSEDTAVYYCATGGNYYNLWTGYYPLAYWGQGTLVTVSS
VL: QSVLTQPPSVSAAPGQKVTISCSGSSSNIGKNYVSWYQQLPGAAPKLLIFDDTQRPSGIPDRFSGSKSGTSATLAITGLQTGDEADYYCGTWDSSLSTGQLFGGGTKLTVL
notes: also called CD4i antibody 21c
For B1, the “stoichiometry N” value (B41 SOSIP.664 v4.2) was 3 copies per Env trimer and the binding result [1] was “binds”.
